{
  "source": "patent US20260373262",
  "about": "(published 2026)",
  "binders": {"B1": {"name": "hLFTT-1 VH4/VL5 (antibody, V domains shown)", "VH": "QIQLVQSGSELKKPGASVKVSCKASGYTFTTYGMSWVRQAPGQGLKWMGWIYTYSGVPTYADDLTGRFVFSLDTSVSTAYLQISSLKAEDTATYYCARVRDGYYRYAMDYWGRGTLVTVSS", "VL": "DIQMTQSPSSLSVSVGDRVTITCKASQDINRYIAWYQQQPGKAPKLLIHFTSTLQSGVPSRFSGSGSGTDFTFTISSLQPEDIATYYCLQYDDLRTFGQGTKLEIK"}},
  "target": "T1, EPHB6 (human, UniProt O15197)",
  "T1 chain": "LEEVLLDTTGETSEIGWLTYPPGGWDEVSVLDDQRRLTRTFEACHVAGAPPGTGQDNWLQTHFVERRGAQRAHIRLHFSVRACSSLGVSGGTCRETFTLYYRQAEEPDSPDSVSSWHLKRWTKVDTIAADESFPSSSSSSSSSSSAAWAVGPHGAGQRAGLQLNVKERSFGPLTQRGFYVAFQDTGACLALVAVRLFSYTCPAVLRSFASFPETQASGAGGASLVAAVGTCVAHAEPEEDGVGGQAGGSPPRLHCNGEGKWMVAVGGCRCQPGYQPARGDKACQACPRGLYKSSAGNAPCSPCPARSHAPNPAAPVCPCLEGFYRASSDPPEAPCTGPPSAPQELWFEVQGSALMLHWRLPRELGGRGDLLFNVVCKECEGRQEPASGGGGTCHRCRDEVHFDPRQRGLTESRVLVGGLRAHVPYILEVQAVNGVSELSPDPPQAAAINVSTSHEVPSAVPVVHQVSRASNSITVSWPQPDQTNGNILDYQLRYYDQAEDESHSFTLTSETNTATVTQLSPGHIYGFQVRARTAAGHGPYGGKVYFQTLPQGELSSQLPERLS",
  "experiment": "FACS",
  "data": [
    {"binder": "B1", "values": [
      {"measurement": "EC50", "result": "> 300", "unit": "µg/mL"}
    ]}
  ]
}
